Square brackets hold non-standard residues; d marks the D form. Ends that are not written are not given here. 2Nal = N[C@@H](Cc1ccc2ccccc2c1)C(=O)O; d2Nal = N[C@H](Cc1ccc2ccccc2c1)C(=O)O; 2Thi = N[C@@H](Cc1cccs1)C(=O)O; Cha = N[C@@H](CC1CCCCC1)C(=O)O; d2Thi = N[C@H](Cc1cccs1)C(=O)O; dCha = N[C@H](CC1CCCCC1)C(=O)O
What was measured:
GST-BIR3RING (human) = GST-BIR3RING (human) (UniProt P98170); experiment: fluorescence polarization competition; unlabeled SMAC 0 to 50 µM against 400 nM rhodamine-SMAC and 1 µM GST-BIR3RING
GST-XIAP = GST-XIAP (human, UniProt P98170 1-497); experiment: cell-based or functional assay
Chain of GST-XIAP (P98170 whole entry): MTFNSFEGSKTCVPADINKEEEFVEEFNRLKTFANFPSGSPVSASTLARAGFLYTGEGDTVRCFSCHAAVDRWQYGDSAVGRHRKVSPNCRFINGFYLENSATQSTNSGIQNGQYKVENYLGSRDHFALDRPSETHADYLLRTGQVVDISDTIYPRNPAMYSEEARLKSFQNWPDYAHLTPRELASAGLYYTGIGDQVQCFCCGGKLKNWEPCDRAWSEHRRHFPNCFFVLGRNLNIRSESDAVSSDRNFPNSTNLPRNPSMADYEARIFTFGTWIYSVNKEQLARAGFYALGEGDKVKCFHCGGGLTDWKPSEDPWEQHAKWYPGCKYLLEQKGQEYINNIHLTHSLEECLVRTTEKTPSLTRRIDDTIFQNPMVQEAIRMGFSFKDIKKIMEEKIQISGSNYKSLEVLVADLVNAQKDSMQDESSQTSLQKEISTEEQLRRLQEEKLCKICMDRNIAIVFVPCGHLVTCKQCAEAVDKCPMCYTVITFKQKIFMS

Chain of GST-BIR3RING (human) (P98170 243-497): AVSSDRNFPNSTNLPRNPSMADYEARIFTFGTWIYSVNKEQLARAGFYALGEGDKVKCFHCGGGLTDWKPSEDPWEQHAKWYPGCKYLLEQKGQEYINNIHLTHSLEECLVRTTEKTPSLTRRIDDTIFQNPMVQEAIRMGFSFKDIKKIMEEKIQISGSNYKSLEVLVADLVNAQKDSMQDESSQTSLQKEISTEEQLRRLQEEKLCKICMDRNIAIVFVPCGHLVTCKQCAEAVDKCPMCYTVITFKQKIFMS

IC50 (GST-BIR3RING (human)) [µM] | ratio of Vmax with and without peptide, caspase derepression assay (GST-XIAP) | Molecule
21 | – | unlabelled SMAC (peptide)
– | > 2.4 | [Cha][d2Nal]W[2Thi] [TPI 1332-41]
– | > 2.4 | [2Nal][d2Thi][dF][dW] [TPI 1352-72]
– | > 2.4 | [2Nal][dCha]W[dW] [TPI 1352-66]
– | > 2.4 | A[dW]W[2Thi] [TPI 1332/1352-47]
– | > 2.4 | A[dW]W[2Thi] [TPI 1352-6]
– | > 2.4 | AWW[2Thi] (also: some Trp may retain formyl protecting groups) [TPI 1332/1352-1]
